Reference: PMC12698191 (Molecular cell, 2025)

B1: purified human SWELL1 (homo-hexamer) (natural protein)
chain: MIPVTELRYFADTQPAYRILKPWWDVFTDYISIVMLMIAVFGGTLQVTQDKMICLPCKWVTKDSCNDSFRGWAAPGPEPTYPNSTILPTPDTGPTGIKYDLDRHQYNYVDAVCYENRLHWFAKYFPYLVLLHTLIFLACSNFWFKFPRTSSKLEHFVSILLKCFDSPWTTRALSETVVEESDPKPAFSKMNGSMDKKSSTVSEDVEATVPMLQRTKSRIEQGIVDRSETGVLDKKEGEQAKALFEKVKKFRTHVEEGDIVYRLYMRQTIIKVIKFILIICYTVYYVHNIKFDVDCTVDIESLTGYRTYRCAHPLATLFKILASFYISLVIFYGLICMYTLWWMLRRSLKKYSFESIREESSYSDIPDVKNDFAFMLHLIDQYDPLYSKRFAVFLSEVSENKLRQLNLNNEWTLDKLRQRLTKNAQDKLELHLFMLSGIPDTVFDLVELEVLKLELIPDVTIPPSIAQLTGLKELWLYHTAAKIEAPALAFLRENLRALHIKFTDIKEIPLWIYSLKTLEELHLTGNLSAENNRYIVIDGLRELKRLKVLRLKSNLSKLPQVVTDVGVHLQKLSINNEGTKLIVLNSLKKMANLTELELIRCDLERIPHSIFSLHNLQEIDLKDNNLKTIEEIISFQHLHRLTCLKLWYNHIAYIPIQIGNLTNLERLYLNRNKIEKIPTQLFYCRKLRYLDLSHNNLTFLPADIGLLQNLQNLAITANRIETLPPELFQCRKLRALHLGNNVLQSLPSRVGELTNLTQIELRGNRLECLPVELGECPLLKRSGLVVEEDLFNTLPPEVKERLWRADKEQA
B2: purified human PSA (shorter isoform) (enzyme, UniProt P55786-1 45-919, looked up)
chain: MPEKRPFERLPADVSPINYSLCLKPDLLDFTFEGKLEAAAQVRQATNQIVMNCADIDIITASYAPEGDEEIHATGFNYQNEDEKVTLSFPSTLQTGTGTLKIDFVGELNDKMKGFYRSKYTTPSGEVRYAAVTQFEATDARRAFPCWDEPAIKATFDISLVVPKDRVALSNMNVIDRKPYPDDENLVEVKFARTPVMSTYLVAFVVGEYDFVETRSKDGVCVRVYTPVGKAEQGKFALEVAAKTLPFYKDYFNVPYPLPKIDLIAIADFAAGAMENWGLVTYRETALLIDPKNSCSSSRQWVALVVGHELAHQWFGNLVTMEWWTHLWLNEGFASWIEYLCVDHCFPEYDIWTQFVSADYTRAQELDALDNSHPIEVSVGHPSEVDEIFDAISYSKGASVIRMLHDYIGDKDFKKGMNMYLTKFQQKNAATEDLWESLENASGKPIAAVMNTWTKQMGFPLIYVEAEQVEDDRLLRLSQKKFCAGGSYVGEDCPQWMVPITISTSEDPNQAKLKILMDKPEMNVVLKNVKPDQWVKLNLGTVGFYRTQYSSAMLESLLPGIRDLSLPPVDRLGLQNDLFSLARAGIISTVEVLKVMEAFVNEPNYTVWSDLSCNLGILSTLLSHTDFYEEIQEFVKDVFSPIGERLGWDPKPGEGHLDALLRGLVLGKLGKAGHKATLEEARRRFKDHVEGKQILSADLRSPVYLTVLKHGDGTTLDIMLKLHKQADMQEEKNRIERVLGATLLPDLIQKVLTFALSEEVRPQDTVSVIGGVAGGSKHGRKAAWKFIKDNWEELYNRYQGGFLISRLIKLSVEGFAVDKMAGEVKAFFESHPAPSAERTIQQCCENILLNAAWLKRDAESIHQYLLQRKASPPTV

Tests used:
Test in all cases: cryo-EM structure
cryo-EM structure = target: the molecule itself
[1] = target: B2
[2] = target: B1

Binder | stoichiometry N (cryo-EM structure) | binding result [1] | stoichiometry N [2]
B1 | 6 | binds | 
B2 |  |  | 3 PSA molecules per SWELL1 hexamer
